The text below walks through data of US20020106678A1 (published 2002).

Assay [1] addresses T1, human G protein β2 subunit (human, UniProt P62879 1-340). Description: tryptic proteolysis protection assay of co-translated β and γ subunits (βγ dimer formation). Here is the method: (§1) βγ interaction was assessed by a tryptic proteolysis assay. Plasmid DNA (1 μg) for each of the β and γ subunits were co-transcribed and co-translated in the TNT-coupled rabbit reticulocyte lysate system (Promega, Madison, Wis.). The plasmid DNA for each of the γ subunits was linearized to limit the generation of translated products of higher molecular weight. […] To increase levels of the γ₁₀ and γ₁₁ subunits 2 μg of capped RNA were added to the co-transcribed β-γ mix. Alternatively, γ₁₀ and γ₁₁ subunits that had been translated separately were added to the co-translated β-γ mix. For tryptic digestion, 5 or 10 μl aliquots of the co-translated β-γ mix were digested by addition of 1 μl trypsin (1 μg) in a final volume of 20 μl (with 50 mM Na-HEPES, pH 8.0) After incubation for 1 hour at 30° C., the digestions were stopped by addition of Laemmli sample buffer and boiling for 3 minutes. Protected fragments of β were visualized by running samples on 15% SDS-PAGE gels. After electrophoresis, gels were fixed in 40% methanol/10% acetic acid mix, soaked in ENHANCE (DuPont-NEN, Boston, Mass.), and dried. The dried gels were exposed for 8 to 48 hours at −80° C.

Assay [2] addresses T1, human G protein β2 subunit. Description: tryptic proteolysis protection assay of co-translated β and γ subunits (rabbit reticulocyte lysate, SDS-PAGE). Here is the method: as §1

T1 sequence (P62879 whole entry): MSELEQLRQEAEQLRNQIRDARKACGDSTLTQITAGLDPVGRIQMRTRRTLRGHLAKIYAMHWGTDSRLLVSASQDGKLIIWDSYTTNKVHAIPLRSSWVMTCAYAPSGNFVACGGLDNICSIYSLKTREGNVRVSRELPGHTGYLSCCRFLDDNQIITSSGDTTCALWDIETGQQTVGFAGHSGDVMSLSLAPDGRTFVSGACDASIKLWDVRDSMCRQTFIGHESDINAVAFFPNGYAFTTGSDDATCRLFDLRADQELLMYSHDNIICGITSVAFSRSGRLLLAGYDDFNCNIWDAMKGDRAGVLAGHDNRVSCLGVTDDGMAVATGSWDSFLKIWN

B1: human G protein γ4 subunit (other)
chain: MKEGMSNNSTTSISQARKAVEQLKMEACMDRVKVSQAAADLLAYCEAHVREDPLIIPVPASENPFREKKFFCTIL
modifications: modified by a geranylgeranyl group (residue not stated)
As for B1, in assay [1], the binding result is given as “binds”.

B2: human G protein γ11 subunit (other)
chain: MPALHIEDLPEKEKLKMEVEQLRKEVKLQRQQVSKCSEEIKNYIEERSGEDPLVKGIPEDKNPFKEKGSCVIS
modifications: modified by a farnesyl group (residue not stated)
With B2, the binding result in assay [2] is “no binding”.
